Results as given in the Human Domainome abundance scans (Beltran et al. 2025).
± gives the uncertainty stated by the source.

B1: Ubiquitin-protein ligase residues 30 to 86; numbered along this chain, Q05086 (parent)
chain: KHLIERYYHQLTEGCGNEACTNEFCASCPTFLRMDNNAAAIKALELYKINAKLCDPH

Variants of: B1
Assay: abundance fitness (aPCA) (normalised: wild type 0, dead -1); higher = more abundant; growth selection in yeast, the domain comes from the species named
Settings: Homo sapiens

| Variant | abundance fitness |
| --- | --- |
| KHLIERYYHQLTEGCGNEACTNEFCVSCPTFLRMDNNAAAIKALELYKINAKLCDPH | -0.156 ± 0.052 |
| KHLIERYYHQLTEGCGNEACTNEFCTSCPTFLRMDNNAAAIKALELYKINAKLCDPH | -0.328 ± 0.075 |
| KHLIERYYHQLTEGCGNEACTNEFCWSCPTFLRMDNNAAAIKALELYKINAKLCDPH | -0.104 ± 0.079 |
| KHLIERYYHQLTEGCGNEACTNEFCESCPTFLRMDNNAAAIKALELYKINAKLCDPH | -0.332 ± 0.083 |
| KHLIERYYHQLTEGCGNEACTNEFCGSCPTFLRMDNNAAAIKALELYKINAKLCDPH | -0.146 ± 0.05 |
| KHLIERYYHQLTEGCGNEACTNEFCFSCPTFLRMDNNAAAIKALELYKINAKLCDPH | 0.077 ± 0.12 |
| KHLIERYYHQLTEGCGNEACTNEFCSSCPTFLRMDNNAAAIKALELYKINAKLCDPH | -0.047 ± 0.063 |
| KHLIERYYHQLTEGCGNEACTNYFCASCPTFLRMDNNAAAIKALELYKINAKLCDPH | -0.102 ± 0.097 |
| KHLIERYYHQLTEGCGNEACTNEFGASCPTFLRMDNNAAAIKALELYKINAKLCDPH | -0.973 ± 0.1 |
| KHLIERYYHQLTEGCGNEACTNEFIASCPTFLRMDNNAAAIKALELYKINAKLCDPH | -0.613 ± 0.28 |
| KHLIERYYHQLTEGCGNEACTNEFNASCPTFLRMDNNAAAIKALELYKINAKLCDPH | -0.882 ± 0.32 |
| KHLIERYYHQLTEGCGNEACTNEFRASCPTFLRMDNNAAAIKALELYKINAKLCDPH | -1.05 ± 0.12 |
| KHLIERYYHQLTEGCGNEACTNEFEASCPTFLRMDNNAAAIKALELYKINAKLCDPH | -0.72 ± 0.21 |
| KHLIERYYHQLTEGCGNEACTNEFHASCPTFLRMDNNAAAIKALELYKINAKLCDPH | -0.887 ± 0.21 |
| KHLIERYYHQLTEGCGNEACTNEFPASCPTFLRMDNNAAAIKALELYKINAKLCDPH | -1.18 ± 0.23 |
| KHLIERYYHQLTEGCGNEACTNEFVASCPTFLRMDNNAAAIKALELYKINAKLCDPH | -0.891 ± 0.11 |
| KHLIERYYHQLTEGCGNEACTNEFSASCPTFLRMDNNAAAIKALELYKINAKLCDPH | -0.741 ± 0.14 |
| KHLIERYYHQLTEGCGNEACTNEFKASCPTFLRMDNNAAAIKALELYKINAKLCDPH | -1.01 ± 0.21 |
| KHLIERYYHQLTEGCGNEACTNEFAASCPTFLRMDNNAAAIKALELYKINAKLCDPH | -1.03 ± 0.18 |
| KHLIERYYHQLTEGCGNEACTNEFFASCPTFLRMDNNAAAIKALELYKINAKLCDPH | -0.791 ± 0.17 |
| KHLIERYYHQLTEGCGNEACTNEFYASCPTFLRMDNNAAAIKALELYKINAKLCDPH | -0.816 ± 0.095 |
| KHLIERYYHQLTEGCGNEACTNEFWASCPTFLRMDNNAAAIKALELYKINAKLCDPH | -1.05 ± 0.23 |
| KHLIERYYHQLTEGCGNEACTNEFMASCPTFLRMDNNAAAIKALELYKINAKLCDPH | -0.841 ± 0.15 |
| KHLIERYYHQLTEGCGNEACTNEFLASCPTFLRMDNNAAAIKALELYKINAKLCDPH | -1.08 ± 0.13 |

| Variant | abundance fitness |
| --- | --- |
| KHLIERYYHQLTEGCGNEACTNEFCASCETFLRMDNNAAAIKALELYKINAKLCDPH | 0.03 ± 0.17 |
| KHLIERYYHQLTEGCGNEACTNEFCASCATFLRMDNNAAAIKALELYKINAKLCDPH | -0.118 ± 0.11 |
| KHLIERYYHQLTEGCGNEACTNEFCASCFTFLRMDNNAAAIKALELYKINAKLCDPH | -0.195 ± 0.16 |
| KHLIERYYHQLTEGCGNEACTNEFCASCDTFLRMDNNAAAIKALELYKINAKLCDPH | -0.252 ± 0.2 |
| KHLIERYYHQLTEGCGNEACTNEFCAMCPTFLRMDNNAAAIKALELYKINAKLCDPH | -0.112 ± 0.072 |
| KHLIERYYHQLTEGCGNEACTNEFCAGCPTFLRMDNNAAAIKALELYKINAKLCDPH | -0.09 ± 0.048 |
| KHLIERYYHQLTEGCGNEACTNEFCARCPTFLRMDNNAAAIKALELYKINAKLCDPH | -0.186 ± 0.05 |
| KHLIERYYHQLTEGCGNEACTNEFCANCPTFLRMDNNAAAIKALELYKINAKLCDPH | -0.06 ± 0.1 |
| KHLIERYYHQLTEGCGNEACTNEFCACCPTFLRMDNNAAAIKALELYKINAKLCDPH | -0.061 ± 0.072 |
| KHLIERYYHQLTEGCGNEACTNEFCAKCPTFLRMDNNAAAIKALELYKINAKLCDPH | -0.06 ± 0.081 |
| KHLIERYYHQLTEGCGNEACTNEFCAWCPTFLRMDNNAAAIKALELYKINAKLCDPH | -0.772 ± 0.069 |
| KHLIERYYHQLTEGCGNEACTNEFCAICPTFLRMDNNAAAIKALELYKINAKLCDPH | -0.763 ± 0.15 |
| KHLIERYYHQLTEGCGNEACTNEFCAYCPTFLRMDNNAAAIKALELYKINAKLCDPH | -0.441 ± 0.1 |
| KHLIERYYHQLTEGCGNEACTNEFCAFCPTFLRMDNNAAAIKALELYKINAKLCDPH | -0.349 ± 0.082 |
| KHLIERYYHQLTEGCGNEACTNEFCAHCPTFLRMDNNAAAIKALELYKINAKLCDPH | -0.196 ± 0.093 |
| KHLIERYYHQLTEGCGNEACTNEFCADCPTFLRMDNNAAAIKALELYKINAKLCDPH | -0.131 ± 0.082 |
| KHLIERYYHQLTEGCGNEACTNEFCALCPTFLRMDNNAAAIKALELYKINAKLCDPH | -0.523 ± 0.058 |
| KHLIERYYHQLTEGCGNEACTNEFCAVCPTFLRMDNNAAAIKALELYKINAKLCDPH | -0.594 ± 0.056 |
| KHLIERYYHQLTEGCGNEACTNEFCAQCPTFLRMDNNAAAIKALELYKINAKLCDPH | -0.179 ± 0.091 |
| KHLIERYYHQLTEGCGNEACTNEFCAACPTFLRMDNNAAAIKALELYKINAKLCDPH | -0.072 ± 0.056 |
| KHLIERYYHQLTEGCGNEACTNEFCAPCPTFLRMDNNAAAIKALELYKINAKLCDPH | -0.711 ± 0.098 |
| KHLIERYYHQLTEGCGNEACTNEFCAECPTFLRMDNNAAAIKALELYKINAKLCDPH | -0.374 ± 0.069 |
| KHLIERYYHQLTEGCGNEACTNEFCATCPTFLRMDNNAAAIKALELYKINAKLCDPH | -0.113 ± 0.072 |
